# Source: patent US20230324389
# MMP9, sequence (chain, as listed by the source): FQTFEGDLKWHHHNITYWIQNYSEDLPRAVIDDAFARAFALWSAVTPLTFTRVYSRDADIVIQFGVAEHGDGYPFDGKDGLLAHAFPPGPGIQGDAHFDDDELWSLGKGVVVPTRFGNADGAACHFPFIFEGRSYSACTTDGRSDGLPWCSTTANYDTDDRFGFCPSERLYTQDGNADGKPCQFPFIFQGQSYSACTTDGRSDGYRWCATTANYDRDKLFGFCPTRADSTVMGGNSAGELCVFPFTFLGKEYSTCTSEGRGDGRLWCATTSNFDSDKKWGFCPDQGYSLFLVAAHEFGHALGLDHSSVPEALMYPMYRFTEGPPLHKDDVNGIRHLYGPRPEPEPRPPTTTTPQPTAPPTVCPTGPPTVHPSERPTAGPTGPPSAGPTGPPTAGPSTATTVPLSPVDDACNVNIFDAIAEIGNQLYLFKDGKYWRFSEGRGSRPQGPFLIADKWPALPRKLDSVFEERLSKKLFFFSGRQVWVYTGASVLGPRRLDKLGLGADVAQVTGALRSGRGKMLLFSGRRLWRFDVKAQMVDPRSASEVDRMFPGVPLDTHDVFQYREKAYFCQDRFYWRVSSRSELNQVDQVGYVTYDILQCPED
Substance,unmasking (protease cleavage) rate (818-C1 MB),unmasking (protease cleavage) rate (818-C1MA),unmasking (protease cleavage) rate (818-P1),unmasking (protease cleavage) activity (818-C1 MB),unmasking (protease cleavage) activity (818-C1MA),unmasking (protease cleavage) activity (818-P1)
MMP9,MMP9: 818-P1>818-C1 MB>818-C1MA,MMP9: 818-P1>818-C1 MB>818-C1MA,MMP9: 818-P1>818-C1 MB>818-C1MA,,,
Urokinase-type Plasminogen Activator (uPA),,,,Unmasking activity attributable to uPA required higher concentrations of proteases and longer digestion times,Unmasking activity attributable to uPA required higher concentrations of proteases and longer digestion times,Unmasking activity attributable to uPA required higher concentrations of proteases and longer digestion times
